B1: CBL-interacting serine/threonine-protein kinase 24 (Arabidopsis thaliana (Mouse-ear cress)), Q9LDI3 (parent)
chain: MTKKMRRVGKYEVGRTIGEGTFAKVKFARNTDTGDNVAIKIMAKSTILKNRMVDQIKREISIMKIVRHPNIVRLYEVLASPSKIYIVLEFVTGGELFDRIVHKGRLEESESRKYFQQLVDAVAHCHCKGVYHRDLKPENLLLDTNGNLKVSDFGLSALPQEGVELLRTTCGTPNYVAPEVLSGQGYDGSAADIWSCGVILFVILAGYLPFSETDLPGLYRKINAAEFSCPPWFSAEVKFLIHRILDPNPKTRIQIQGIKKDPWFRLNYVPIRAREEEEVNLDDIRAVFDGIEGSYVAENVERNDEGPLMMNAFEMITLSQGLNLSALFDRRQDFVKRQTRFVSRREPSEIIANIEAVANSMGFKSHTRNFKTRLEGLSSIKAGQLAVVIEIYEVAPSLFMVDVRKAAGETLEYHKFYKKLCSKLENIIWRATEGIPKSEILRTITF
partner: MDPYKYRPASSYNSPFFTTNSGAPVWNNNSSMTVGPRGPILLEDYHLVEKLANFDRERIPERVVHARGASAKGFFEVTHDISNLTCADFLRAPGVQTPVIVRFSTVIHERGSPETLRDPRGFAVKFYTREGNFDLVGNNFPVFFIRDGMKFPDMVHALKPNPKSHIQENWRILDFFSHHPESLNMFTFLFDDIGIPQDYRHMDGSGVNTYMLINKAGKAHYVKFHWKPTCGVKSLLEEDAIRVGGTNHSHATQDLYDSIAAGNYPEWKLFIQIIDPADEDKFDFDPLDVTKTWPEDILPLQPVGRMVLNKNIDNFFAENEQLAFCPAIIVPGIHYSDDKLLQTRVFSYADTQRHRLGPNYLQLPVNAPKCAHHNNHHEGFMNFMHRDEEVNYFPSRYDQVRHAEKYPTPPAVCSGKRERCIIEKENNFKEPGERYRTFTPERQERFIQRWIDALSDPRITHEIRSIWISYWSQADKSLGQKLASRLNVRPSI

Variants of: B1
Conditions: with cata2_arath CAT2, P25819

| Variant | effect of a mutation on the interaction |
| --- | --- |
| MTKKMRRVGKYEVGRTIGEGTFAKVKFARNTDTGDNVAINIMAKSTILKNRMVDQIKREISIMKIVRHPNIVRLYEVLASPSKIYIVLEFVTGGELFDRIVHKGRLEESESRKYFQQLVDAVAHCHCKGVYHRDLKPENLLLDTNGNLKVSDFGLSALPQEGVELLRTTCGTPNYVAPEVLSGQGYDGSAADIWSCGVILFVILAGYLPFSETDLPGLYRKINAAEFSCPPWFSAEVKFLIHRILDPNPKTRIQIQGIKKDPWFRLNYVPIRAREEEEVNLDDIRAVFDGIEGSYVAENVERNDEGPLMMNAFEMITLSQGLNLSALFDRRQDFVKRQTRFVSRREPSEIIANIEAVANSMGFKSHTRNFKTRLEGLSSIKAGQLAVVIEIYEVAPSLFMVDVRKAAGETLEYHKFYKKLCSKLENIIWRATEGIPKSEILRTITF [K40N] | increasing interaction |
